Literature values, collected in patent US20190275108A1, “COMPOSITIONS IN THE FORM OF AN INJECTABLE AQUEOUS SOLUTION COMPRISING AMYLIN, AN AMYLIN RECEPTOR AGONIST OR AN AMYLIN ANALOGUE AND A CO-POLYAMINO ACID” (ADOCIA, priority 2017, published 2019).
Read-outs that look alike come from different tables or passages of the source.

amylin: peptide of 37 amino acids, co-stored and co-secreted with insulin (KCNTATCATQRLANFLVHSSNNFGAILSSTNVGSNTY; Islet amyloid polypeptide; UniProt P10997 34-70, looked up)
Time for which amylin is stable (acidic pH): about fifteen
Time for which amylin is stable (neutral pH): less than a minute
